In publication PMC10813002, “Neurofilament Light Protein Rod Domain Exhibits Structural Heterogeneity” (Biomolecules, 2024):

B1: NFL2 (neurofilament light chain protein, coil 2, Val249-Glu396) (domain or fragment, human, UniProt P07196 249-396, looked up)
chain: VTKPDLSAALKDIRAQYEKLAAKNMQNAEEWFKSRFTVLTESAAKNTDAVRAAKDEVSESRRLLKAKTLEIEACRGMNEALEKQLQELEDKQNADISAMQDTINKLENELRTTKSEMARYLKEYQDLLNVKMALDIEIAAYRKLLEGE
notes: neurofilament light chain protein (NFL), human, product of the NEFL gene, UniProt P07196, coil 2, residues Val249-Glu396; The monomer mass used for DSC is 16.9 kDa; also called NFL coil 2; source: E. coli C41, inclusion bodies solubilised in 8 M urea, purified (HisTrap HP), renatured by dialysis
B2: NFLROD (neurofilament light chain protein rod domain, coils 1A, 1B and 2, Ser80-Glu396) (domain or fragment, human, UniProt P07196 80-396, looked up)
chain: SNDLKSIRTQEKAQLQDLNDRFASFIERVHELEQQNKVLEAELLVLRQKHSEPSRFRALYEQEIRDLRLAAEDATNEKQALQGEREGLEETLRNLQARYEEEVLSREDAEGRLMEARKGADEAALARAELEKRIDSLMDEISFLKKVHEEEIAELQAQIQYAQISVEMDVTKPDLSAALKDIRAQYEKLAAKNMQNAEEWFKSRFTVLTESAAKNTDAVRAAKDEVSESRRLLKAKTLEIEACRGMNEALEKQLQELEDKQNADISAMQDTINKLENELRTTKSEMARYLKEYQDLLNVKMALDIEIAAYRKLLEGE
notes: neurofilament light chain protein (NFL), human, product of the NEFL gene, UniProt P07196, rod domain (coils 1A, 1B and 2), residues Ser80-Glu396; The monomer mass used for DSC is 36.6 kDa; also called NFL rod domain; full rod domain (1A+1B+2); source: E. coli C41, inclusion bodies solubilised in 8 M urea, purified (HisTrap HP), renatured by dialysis
B3: NFL_(1B+2) (neurofilament light chain protein, coils 1B and 2, Ser133-Glu396) (domain or fragment, human, UniProt P07196 133-396, looked up)
chain: SRFRALYEQEIRDLRLAAEDATNEKQALQGEREGLEETLRNLQARYEEEVLSREDAEGRLMEARKGADEAALARAELEKRIDSLMDEISFLKKVHEEEIAELQAQIQYAQISVEMDVTKPDLSAALKDIRAQYEKLAAKNMQNAEEWFKSRFTVLTESAAKNTDAVRAAKDEVSESRRLLKAKTLEIEACRGMNEALEKQLQELEDKQNADISAMQDTINKLENELRTTKSEMARYLKEYQDLLNVKMALDIEIAAYRKLLEGE
notes: neurofilament light chain protein (NFL), human, product of the NEFL gene, UniProt P07196, coils 1B and 2, residues Ser133-Glu396; The monomer mass used for DSC is 30.4 kDa; source: E. coli C41, inclusion bodies solubilised in 8 M urea, purified (HisTrap HP), renatured by dialysis
B4: NFL_(1A+1B) (neurofilament light chain protein, coils 1A and 1B, Ser80-Ile243) (domain or fragment, human, UniProt P07196 80-243, looked up)
chain: SNDLKSIRTQEKAQLQDLNDRFASFIERVHELEQQNKVLEAELLVLRQKHSEPSRFRALYEQEIRDLRLAAEDATNEKQALQGEREGLEETLRNLQARYEEEVLSREDAEGRLMEARKGADEAALARAELEKRIDSLMDEISFLKKVHEEEIAELQAQIQYAQI
notes: neurofilament light chain protein (NFL), human, product of the NEFL gene, UniProt P07196, coils 1A and 1B, residues Ser80-Ile243; The monomer mass used for DSC is 19.2 kDa; also called coil 1; source: E. coli C41, purified from the fraction of soluble proteins (HisTrap HP, imidazole gradient)
B5: NFL1B (neurofilament light chain protein, coil 1B, Ser133-Ile243) (domain or fragment, human, UniProt P07196 133-243, looked up)
chain: SRFRALYEQEIRDLRLAAEDATNEKQALQGEREGLEETLRNLQARYEEEVLSREDAEGRLMEARKGADEAALARAELEKRIDSLMDEISFLKKVHEEEIAELQAQIQYAQI
notes: neurofilament light chain protein (NFL), human, product of the NEFL gene, UniProt P07196, coil 1B, residues Ser133-Ile243; Dimer at 1-2 mg/mL; larger oligomers also at 5 mg/mL; also called NFL coil 1B domain; source: E. coli C41, purified from the fraction of soluble proteins (HisTrap HP, imidazole gradient)

Columns and labels:
[1] = target: the molecule itself; assay: SEC + cross-linking; 250 uL of 2 mg/mL protein on Superose 6 Increase 10/300 GL in 5 mM HEPES pH 8.0, 0.5 mM EGTA, 2 mM DTT; samples from each peak cross-linked with 0.024% glutaraldehyde at 30 °C for 60 min, SDS-PAGE in 12.5% gel
[2] = target: the molecule itself; assay: cross-linking; NFL1B at 1 and 2 mg/mL, 0.008% or 0.024% glutaraldehyde, SDS-PAGE

| Protein | stoichiometry N [1] | stoichiometry N [2] |
| --- | --- | --- |
| B1 | 2 |  |
| B2 | 4 |  |
| B3 | 4 |  |
| B4 | 2 |  |
| B5 |  | 2 |
